Measured values: US20260274944A1 (published 2026)

T1: mouse RAGE (mRAGE) fused to EGFP, expressed on CHO cells (mouse, UniProt Q62151 23-402)
T1 chain: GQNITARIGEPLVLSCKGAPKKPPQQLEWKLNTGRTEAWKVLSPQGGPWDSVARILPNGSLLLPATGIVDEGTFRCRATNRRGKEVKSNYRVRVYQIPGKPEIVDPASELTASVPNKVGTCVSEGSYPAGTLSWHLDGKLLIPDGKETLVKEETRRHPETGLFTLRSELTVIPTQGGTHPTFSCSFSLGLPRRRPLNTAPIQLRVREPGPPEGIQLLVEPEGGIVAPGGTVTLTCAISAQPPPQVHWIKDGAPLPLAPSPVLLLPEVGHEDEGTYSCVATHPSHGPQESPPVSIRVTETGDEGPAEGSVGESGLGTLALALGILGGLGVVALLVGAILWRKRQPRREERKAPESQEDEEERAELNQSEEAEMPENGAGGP

B1: VHH 1-Fc (Fc fusion)
chain: QVQLVQSGGGLVQPGGSLRLSCAVSGSIFSSATMGWYRQAPGKQRELAARISSGGSTNYLDSVKGRFTISRDNAKNTVYLQMNSLKLEDTAVYYCRLQANFGLVDYWGKGTQVTVSS
B2: VHH 1 (VHH)
VHH: QVQLVQSGGGLVQPGGSLRLSCAVSGSIFSSATMGWYRQAPGKQRELAARISSGGSTNYLDSVKGRFTISRDNAKNTVYLQMNSLKLEDTAVYYCRLQANFGLVDYWGKGTQVTVSS
B3: VHH 5-Fc (Fc fusion)
chain: EVQLVESGGGLVQPGGSLRLSCAASGTIFSLNPMGWYRQAPGKQLELVALISDSGTANYADFVRGRFTISRDTTKKTLYLQMNSLEPEDTAVYYCRSTFAAGNFYWGQGTQVTVSS
B4: VHH 3 (VHH)
VHH: QVQLVQSGGGLVQAGGSLRLSCVASGRTFSNYAMAWFRQAPGEEREFVARISWSGGRTSYADSVKGRFTISRDNAKNTVYLQMISLKPEDTAVYYCATEAGAFGGVYSSTGSYDYWGQGTQVTVSS
B5: VHH 4-siTTRm (antibody, V domains shown)
VH: EVQLVESGGGLVQAGGSLRLSCVASGRTFSNYAMAWFRQAPGEEREFVARISWRGGRTSYADSVKGRFTISRDNAKNTVYLQMISLKPEDTAVYYCASEGGAFGGVYSATGSYDYWGQGTQVTVSS
B6: VHH 4-Fc (Fc fusion)
chain: EVQLVESGGGLVQAGGSLRLSCVASGRTFSNYAMAWFRQAPGEEREFVARISWRGGRTSYADSVKGRFTISRDNAKNTVYLQMISLKPEDTAVYYCASEGGAFGGVYSATGSYDYWGQGTQVTVSS
B7: VHH 3-Fc (Fc fusion)
chain: QVQLVQSGGGLVQAGGSLRLSCVASGRTFSNYAMAWFRQAPGEEREFVARISWSGGRTSYADSVKGRFTISRDNAKNTVYLQMISLKPEDTAVYYCATEAGAFGGVYSSTGSYDYWGQGTQVTVSS
B8: VHH 2-Fc (Fc fusion)
chain: QVQLVQSGGGLVQAGGSLRLSCAASGSVSSIYAMGWYRQAPGKQREWVTTITGRGITDYAASVKGRFTISRDTAKNAVYLQMNNLKPEDTARYYCKIDRRGYAPYWGQGTQVTVSS
B9: VHH 2 (VHH)
VHH: QVQLVQSGGGLVQAGGSLRLSCAASGSVSSIYAMGWYRQAPGKQREWVTTITGRGITDYAASVKGRFTISRDTAKNAVYLQMNNLKPEDTARYYCKIDRRGYAPYWGQGTQVTVSS
B10: VHH 2-siTTRm (antibody, V domains shown)
VH: QVQLVQSGGGLVQAGGSLRLSCAASGSVSSIYAMGWYRQAPGKQREWVTTITGRGITDYAASVKGRFTISRDTAKNAVYLQMNNLKPEDTARYYCKIDRRGYAPYWGQGTQVTVSS

Key:
[1] = molecular target: T1, mouse RAGE (mRAGE) fused to EGFP, …; test: flow cytometry on CHO-mRAGE-EGFP cells; apparent Kd; column head prints TfR, legend says RAGE
[2] = molecular target: T2, human RAGE (hRAGE) fused to EGFP, stably expressed on CHO cells (human, UniProt Q15109 23-404); test: flow cytometry on CHO-hRAGE-EGFP cells; apparent Kd; column head prints TfR, legend says RAGE
T2 sequence (Q15109 23-404): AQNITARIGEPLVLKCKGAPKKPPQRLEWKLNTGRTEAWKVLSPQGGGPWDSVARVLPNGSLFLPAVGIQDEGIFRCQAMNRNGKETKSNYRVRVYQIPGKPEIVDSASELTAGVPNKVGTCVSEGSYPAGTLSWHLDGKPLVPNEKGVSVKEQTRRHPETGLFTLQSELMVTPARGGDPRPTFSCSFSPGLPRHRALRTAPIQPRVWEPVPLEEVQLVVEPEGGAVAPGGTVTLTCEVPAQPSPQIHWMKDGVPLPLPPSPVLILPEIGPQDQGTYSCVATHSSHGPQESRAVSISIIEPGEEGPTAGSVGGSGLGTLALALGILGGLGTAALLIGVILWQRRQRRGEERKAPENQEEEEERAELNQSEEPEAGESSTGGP

[3] = molecular target: T1, mouse RAGE (mRAGE) fused to EGFP, …; test: flow cytometry on CHO-mRAGE-EGFP cells; apparent Kd
[4] = molecular target: T2, human RAGE (hRAGE) fused to EGFP, …; test: flow cytometry on CHO-hRAGE-EGFP cells; apparent Kd
[5] = molecular target: T1, mouse RAGE (mRAGE) fused to EGFP, …; test: flow
[6] = molecular target: T1, mouse RAGE (mRAGE) fused to EGFP, …; test: flow cytometry on CHO-mRAGE-EGFP cells; apparent Kd
[7] = molecular target: T1, mouse RAGE (mRAGE) fused to EGFP, …; test: flow

Binder	Kd [1] [nM]	Kd [2] [nM]	further results
B1	1.9	154	
B2			Kd [3]: 320 nM; Kd [4]: 347 nM
B3	153	3.2	
B4			Kd [5]: 80 nM
B5			Kd [6]: 11 nM
B6	1.4		
B7			Kd [7]: 1.4 nM
B8	9.6	3.6	
B9			Kd [3]: 526 nM
B10			Kd [6]: 119 nM
